Source: the supplement of paper PMC9732359
± gives the uncertainty stated by the source.

Experiment: protein stability index of a GFP-peptide fusion (yeast GPS) (PSI 1-4); higher = more stable; sorted into four equal gates, so the index is relative within each strain
In short: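 Each library plasmid carries Cherry plus GFP with a tiled 17-residue yeast protein peptide fused downstream, and the pooled library was carried in yeast. Mid-log cultures in leucine-free medium were sorted into four equal gates by GFP/Cherry ratio. Reads from Illumina sequencing of PCR-amplified plasmids from each gate were assigned to strains by barcodes. Per peptide, the protein stability index was computed as the summed products of gate read frequency and gate number.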

Row | Sequence | protein stability index (doa10∆) | protein stability index (pdr5∆) | protein stability index (san1∆) | protein stability index (ubr1∆)
1 | AELFNNDIKLFVDDTNV [PRP8] | 2.17 ± 0.065 | 2.09 ± 0.053 | 2.46 ± 0.054 | 2.13 ± 0.034
2 | MFQSQSQLQPQPQPQPQ [YDL088C/ASM4] | 2.48 ± 0.056 | 2.49 ± 0.048 | 2.29 ± 0.068 | 2.99 ± 0.04
3 | EAKKFEPTYRLVRYGLA [RPS24A] | 2.83 ± 0.14 | 3.11 ± 0.095 | 2.79 ± 0.13 | 2.88 ± 0.049
4 | KSFTNDKIPLNYAMTRN [SRB5] | 2.8 ± 0.13 | 2.55 ± 0.1 | 2.45 ± 0.06 | 2.67 ± 0.069
5 | NNKKVVGTAIDSILNYA [ECM29] | 2.4 ± 0.21 | 2.75 ± 0.12 | – | 3.06 ± 0.083
6 | VVVSGKLRAARAKAMKF [RPS3] | – | – | – | 3.28 ± 0.29
7 | EEEATMTTSAVSPTVGK [YIL149C/MLP2] | 3.25 ± 0.046 | 3.3 ± 0.037 | 3.229 ± 0.029 | 3.2 ± 0.035
8 | WIQVFGLRTENVLDYFA [MED6] | – | – | 2.38 ± 0.14 | 2.34 ± 0.067
9 | GRLDRKIEFPLPSEDSR [RPT5] | 3.36 ± 0.15 | 2.91 ± 0.21 | 2.71 ± 0.24 | 3.56 ± 0.12
10 | YKHIDASGSINRKVLQA [RPS19A] | 2.06 ± 0.072 | 3.27 ± 0.12 | 2.49 ± 0.073 | 2.53 ± 0.083
11 | MTLKEMYQMITMGGNAE [SMC4] | 2.72 ± 0.065 | 2.41 ± 0.056 | 2.44 ± 0.058 | 2.77 ± 0.068
12 | RNVLSASLDGTIRLWEC [RPN14] | 2.95 ± 0.068 | 3.09 ± 0.073 | 3.14 ± 0.042 | 2.82 ± 0.043
13 | NTLLQQQNYSKVLLPSI [SWI1] | 2.07 ± 0.077 | 2.9 ± 0.11 | 2.79 ± 0.076 | 3.09 ± 0.095
14 | NYKQLTLVGGGAKITPE [RRP43] | 1.86 ± 0.11 | 1.94 ± 0.11 | 2.22 ± 0.18 | 2.01 ± 0.15
15 | GALEEITKDHKVLARQQ [FAS2] | 2.31 ± 0.25 | – | 3.01 ± 0.12 | 2.73 ± 0.17
16 | KRAFENFKKFNERRKDL [SMC3] | 3.45 ± 0.078 | 3.26 ± 0.068 | 3.51 ± 0.068 | 3.15 ± 0.075
17 | LVSMRYPEDKKTQQNEK [RPN3] | – | – | 3.24 ± 0.039 | 3.12 ± 0.12
18 | IQCQIDKLYIHFVQEEP [RGR1] | 2.09 ± 0.093 | 2.55 ± 0.093 | 2.85 ± 0.083 | 3.15 ± 0.095
19 | DKDSEELDSKTRKILEI [MED4] | 2.98 ± 0.093 | 2.65 ± 0.091 | 3.11 ± 0.061 | 2.98 ± 0.064
20 | TVLVIDNSEYSRNGDFP [RPN10] | 2.44 ± 0.058 | 2.73 ± 0.066 | 1.48 ± 0.098 | 2.44 ± 0.041
21 | VRSANEDGTFSVLYPDE [RRP43] | 3.13 ± 0.088 | 3.02 ± 0.088 | 3.18 ± 0.06 | 3.28 ± 0.1
22 | KDEYLAQLDGRIGVLQA [NSL1] | 2.08 ± 0.064 | 2.4 ± 0.046 | 2.41 ± 0.074 | 2.99 ± 0.046
23 | SHLYKARLDGHDFLFNT [RPN14] | 3.37 ± 0.13 | 2.88 ± 0.076 | 3.13 ± 0.07 | 2.85 ± 0.047
24 | AVEKTLALGCHFQDQKN [POP7] | 2.42 ± 0.12 | 3.12 ± 0.11 | 2.87 ± 0.078 | 2.78 ± 0.096
25 | KLTAERANLRKYREGQV [POP1] | 2.91 ± 0.058 | 3.02 ± 0.07 | 2.8 ± 0.073 | 3.01 ± 0.055
26 | EASKKSAVKPRPLKLER [FAS1] | 3.1 ± 0.15 | 3.16 ± 0.13 | 2.88 ± 0.17 | 3.05 ± 0.11
27 | PYTGWVDSKTKEPVDDK [FAS2] | 3.05 ± 0.062 | 3.17 ± 0.069 | 3.05 ± 0.045 | 3.17 ± 0.053

Row | Sequence | protein stability index (doa10∆) | protein stability index (pdr5∆) | protein stability index (san1∆) | protein stability index (ubr1∆)
28 | KRFKRKDNAKISNNLAL [SRP68] | 2.31 ± 0.054 | 2.59 ± 0.067 | 2.26 ± 0.079 | 1.95 ± 0.045
29 | ISQLYSDAVMAEHSQNK [YJL041W/NSP1] | 2.99 ± 0.079 | 2.83 ± 0.081 | 2.75 ± 0.096 | 2.81 ± 0.088
30 | FSRRFDCRDVYCHEKEL [CSN9] | – | – | – | 2.99 ± 0.19
31 | TKLYFDVNEKIRFRIER [RPC25] | 2.97 ± 0.11 | 2.92 ± 0.097 | 2.81 ± 0.084 | 2.92 ± 0.17
32 | NSSEIQSAIRPAGQATQ [RPL4A] | 2.63 ± 0.085 | 2.85 ± 0.094 | 2.77 ± 0.039 | 2.57 ± 0.062
33 | NYLRQQCNYSSLVFNRK [PRE5] | 2.71 ± 0.17 | 2.94 ± 0.11 | – | 2.75 ± 0.088
34 | LNSNIRAGVTIPSIPNP [SNF5] | 2.57 ± 0.075 | 2.72 ± 0.062 | 2.5 ± 0.062 | 2.72 ± 0.049
35 | QWGKYQTFGVDILAKLF [SWI1] | 2.25 ± 0.079 | 2.54 ± 0.063 | 2.43 ± 0.062 | 2.27 ± 0.053
36 | SFLMRQFTRFFLLVPSK [ECM29] | 2.03 ± 0.067 | 2.03 ± 0.057 | 1.75 ± 0.12 | 2.31 ± 0.05
37 | MNGRSLTYAQQQLNKQR [SNF6] | 3.28 ± 0.26 | 3.36 ± 0.14 | 3.02 ± 0.15 | 3.23 ± 0.15
38 | RQFVSNVRSVIRSSRSR [RPP1] | 3.08 ± 0.063 | 3.08 ± 0.071 | 2.91 ± 0.064 | 3.09 ± 0.06
39 | ITKFALFAESHDVLQKL [YML103C/NUP188] | 2.34 ± 0.1 | 1.78 ± 0.2 | 2.02 ± 0.13 | 2.45 ± 0.075
40 | TMMTVEEKPDVTYSDVG [RPT1] | 2.58 ± 0.1 | 2.42 ± 0.068 | 1.83 ± 0.14 | 2.3 ± 0.055
41 | RANVYVGFLVQLDLTGI [PRP8] | 2.5 ± 0.05 | 2.13 ± 0.052 | 2.21 ± 0.057 | 2.45 ± 0.05
42 | VVPNEKADDDSVTIISA [ASC1] | 2.98 ± 0.072 | 2.9 ± 0.082 | 3.05 ± 0.049 | 2.91 ± 0.076
43 | SNNELVRTNTLTKAAIV [RPS8A] | 2.842 ± 0.022 | 3.046 ± 0.022 | 2.724 ± 0.022 | 3.021 ± 0.018
44 | VMKQVETLVLDEADKMI [PRP28] | – | – | 3.42 ± 0.13 | 3.04 ± 0.12
45 | DDDDYGDEEDPNEEAAF [RPC31] | – | 3.38 ± 0.28 | – | –
46 | RKLMEMENILQRCKSNA [YIL149C/MLP2] | 2.04 ± 0.072 | 2.39 ± 0.086 | 2 ± 0.096 | 1.38 ± 0.095
47 | MKVEIDSFSGAKIYPGR [RPL24A] | 3.35 ± 0.072 | 3.45 ± 0.12 | 3.25 ± 0.08 | 3.22 ± 0.1
48 | NVGLPILKSLKNRSNRK [YOR098C/NUP1] | 3.07 ± 0.075 | 3.1 ± 0.078 | 2.88 ± 0.064 | 3.11 ± 0.049
49 | KVVIPNLLCYYNLRSLN [RPN3] | 2.44 ± 0.19 | 2.54 ± 0.081 | 2.74 ± 0.13 | 2.65 ± 0.1
50 | ANCQRQLTEFWTELCQR [NNF1] | 3.09 ± 0.081 | 2.87 ± 0.08 | 3 ± 0.075 | 2.82 ± 0.099
51 | PVLFNRQPSLHKMSMMA [RPO21] | 2.54 ± 0.11 | 2.95 ± 0.093 | 3.05 ± 0.23 | 2.23 ± 0.16
52 | MAIEIINDIRDDDIEKQ [YCG1] | – | 3.07 ± 0.16 | 3.19 ± 0.11 | 3.27 ± 0.14
53 | SFKKIIKFLLTFIDKER [YCS4] | 1.16 ± 0.065 | 1.29 ± 0.11 | 1.19 ± 0.14 | 1.17 ± 0.066
54 | DSFIFDGTAKEVGDEAD [MED4] | 3.22 ± 0.062 | 3.31 ± 0.057 | 3.38 ± 0.05 | 3.11 ± 0.051
